# Measurements: paper PMC6812618 (Journal of biological inorganic chemistry : JBIC : a …, 2019)
# Where “and” joins values, the source holds several entries; their conditions need not be identical. Identical values can stand only once.
# Biological target: the molecule itself
# Assay: AUC
protein,measurement,value
"human BOLA3 (natural protein, UniProt Q53S33 25-107, looked up) MFATQTEGELRVTQILKEKFPRATAIKVTDISGGCGAMYEIKIESEEFKEKRTVQQHQMVNQALKEEIKEMHGLRIFTSVPKR",stoichiometry N,2 and 4
